Source: US20200270125A1 (OMEROS, published 2020)
Where a chain is given by its changes, count along the chain named. Like-named read-outs stand apart in the source and are kept apart here.

T1: human MASP-3 CCP1-CCP2-SP fragment (human)
T1 construct: limits of the assay construct are not restated; also called rMASP-3 (CCP1-CCP2-SP)
T1 chain: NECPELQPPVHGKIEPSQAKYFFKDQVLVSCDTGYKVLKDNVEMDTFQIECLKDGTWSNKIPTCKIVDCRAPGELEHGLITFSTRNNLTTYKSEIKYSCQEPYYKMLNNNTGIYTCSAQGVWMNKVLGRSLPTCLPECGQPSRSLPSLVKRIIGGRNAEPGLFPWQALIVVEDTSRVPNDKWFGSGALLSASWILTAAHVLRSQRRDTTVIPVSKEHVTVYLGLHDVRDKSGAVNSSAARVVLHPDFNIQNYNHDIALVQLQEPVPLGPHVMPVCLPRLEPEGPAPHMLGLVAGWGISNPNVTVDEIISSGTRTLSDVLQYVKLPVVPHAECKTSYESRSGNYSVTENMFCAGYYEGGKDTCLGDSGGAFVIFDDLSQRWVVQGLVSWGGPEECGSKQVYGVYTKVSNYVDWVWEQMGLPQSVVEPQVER

T2: recombinant full-length mouse MASP-3 (mouse)
T2 construct: Entry is with leader; also called mouse full length MASP-3
T2 chain: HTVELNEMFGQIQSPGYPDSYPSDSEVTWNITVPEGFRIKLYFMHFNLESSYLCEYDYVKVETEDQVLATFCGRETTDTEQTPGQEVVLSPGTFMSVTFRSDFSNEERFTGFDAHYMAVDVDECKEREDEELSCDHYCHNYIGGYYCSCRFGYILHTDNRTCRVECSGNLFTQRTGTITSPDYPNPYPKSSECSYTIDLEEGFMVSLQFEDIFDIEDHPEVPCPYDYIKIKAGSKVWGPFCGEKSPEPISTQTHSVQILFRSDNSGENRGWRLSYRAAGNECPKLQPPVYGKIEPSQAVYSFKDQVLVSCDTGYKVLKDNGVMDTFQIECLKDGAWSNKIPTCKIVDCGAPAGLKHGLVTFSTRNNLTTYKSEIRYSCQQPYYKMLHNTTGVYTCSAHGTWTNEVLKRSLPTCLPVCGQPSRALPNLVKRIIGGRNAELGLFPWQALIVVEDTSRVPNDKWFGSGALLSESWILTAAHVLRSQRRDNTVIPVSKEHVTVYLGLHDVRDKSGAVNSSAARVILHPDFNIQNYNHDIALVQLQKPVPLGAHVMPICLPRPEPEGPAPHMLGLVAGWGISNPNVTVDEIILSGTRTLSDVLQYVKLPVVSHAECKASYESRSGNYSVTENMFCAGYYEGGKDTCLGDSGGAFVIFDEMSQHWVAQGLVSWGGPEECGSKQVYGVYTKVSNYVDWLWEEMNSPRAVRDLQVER

T3: human MASP-3 (construct not stated) (human)
T3 chain: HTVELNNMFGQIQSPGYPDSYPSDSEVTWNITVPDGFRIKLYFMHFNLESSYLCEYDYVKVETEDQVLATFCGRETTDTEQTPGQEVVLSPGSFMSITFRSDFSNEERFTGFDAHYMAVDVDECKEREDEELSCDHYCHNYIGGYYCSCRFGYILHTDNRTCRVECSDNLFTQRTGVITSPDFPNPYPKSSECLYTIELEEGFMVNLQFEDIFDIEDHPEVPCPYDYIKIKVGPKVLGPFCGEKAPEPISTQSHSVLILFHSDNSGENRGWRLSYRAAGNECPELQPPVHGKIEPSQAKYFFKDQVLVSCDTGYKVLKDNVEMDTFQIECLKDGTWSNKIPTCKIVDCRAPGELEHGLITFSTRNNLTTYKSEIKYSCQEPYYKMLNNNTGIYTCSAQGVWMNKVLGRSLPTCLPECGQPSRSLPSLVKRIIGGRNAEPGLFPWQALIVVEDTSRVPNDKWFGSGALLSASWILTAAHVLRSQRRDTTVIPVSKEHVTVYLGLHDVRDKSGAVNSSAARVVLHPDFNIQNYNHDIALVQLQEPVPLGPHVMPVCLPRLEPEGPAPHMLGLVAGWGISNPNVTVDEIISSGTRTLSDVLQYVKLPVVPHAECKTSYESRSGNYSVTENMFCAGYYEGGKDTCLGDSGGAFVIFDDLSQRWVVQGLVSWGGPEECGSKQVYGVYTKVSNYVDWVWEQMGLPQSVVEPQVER

T4: recombinant human MASP-1A (S646A, CCP1-CCP2-SP fragment) (human, UniProt P48740 298-699, limits assumed)
T4 chain: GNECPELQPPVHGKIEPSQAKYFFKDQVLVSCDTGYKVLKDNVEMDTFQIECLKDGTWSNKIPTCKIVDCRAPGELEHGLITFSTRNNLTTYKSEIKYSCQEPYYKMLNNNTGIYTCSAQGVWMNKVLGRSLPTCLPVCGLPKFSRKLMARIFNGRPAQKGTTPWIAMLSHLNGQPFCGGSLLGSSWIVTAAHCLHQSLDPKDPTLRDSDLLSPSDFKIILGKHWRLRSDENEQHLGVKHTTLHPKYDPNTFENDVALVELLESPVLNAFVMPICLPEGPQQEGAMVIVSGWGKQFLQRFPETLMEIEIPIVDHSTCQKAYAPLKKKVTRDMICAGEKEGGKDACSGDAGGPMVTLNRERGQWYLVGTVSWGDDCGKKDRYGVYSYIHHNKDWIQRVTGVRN

B1: MASP-3 mAb 2F2 (mouse-human chimeric IgG4) (antibody, V domains shown)
VH: QVQLKQSGAELVTPGASVKMSCKASGYTFTTYPIEWMKQNHGKSLEWIGNFHPYNDDTKYNEKFKGKATLTVEKSSNTVYLELSRLTSDDSAVYFCARRVYYSYFWFGYWGHGTLVTVSS
VL: DIVMTQSQKFMSTSVGDRVNVTCKASQNVGTHVAWYQQKPGQSPKALIYSASYRYSGVPDRFTGSGSGTDFTLTISNVQSEDLAEYFCQQYNSYPRALTFGAGTKLELKR
B2: MASP-3 mAb 2F5 (mouse-human chimeric IgG4) (antibody, V domains shown)
VH: EVQLQQPGAELVKPGASVKMSCKASGYTFTSYWITWVKQRPGQGLEWIGDIYPGSGSTNYNEKFKSKATLTVDTSSSTAYMQLSSLTSEDSAVYYCARRRYYATAWFAYWGQGTLVTVSS
VL: DIVMTQSQKFMSTSVGDRVSITCKASQNVGTAVAWYQQKPGQSPKLLISSASNRYTGVPDRFTGSGSGTDFTLTISNMQSEDVADYFCQQYNSYPLTFGAGTKLELKR
B3: h4D5_19-1 Fab (VH-19 and VL-1) (Fab, V domains shown)
VH: QVQLVQSGAEVKKPGASVKVSCKASGYTFTTDDINWVRQAPGQGLEWIGWIYPRDDRTKYNDKFKDRATLTVDTSSNTAYMELSSLRSEDTAVYYCSSLEDTYWGQGTLVTVSS
VL: DIVMTQSPDSLAVSLGERATINCKSSQSLLNSRTRKNYLAWYQQKPGQPPKLLIYWASTRESGVPDRFSGSGSGTDFTLTISSLQAEDVAVYYCKQSYNLYTFGQGTKVEIKR
notes: Humanized monovalent Fab; also called h4D5_19-1 parental Fab
B4: h4D5_14-1 Fab (VH-14 and VL-1) (Fab, V domains shown)
VH: B3 VH with R67K
VL: B3 VL
notes: Humanized monovalent Fab
B5: h10D12_45-21 Fab (VH-45 and VL-21) (Fab, V domains shown)
VH: QIQLVQSGSELKKPGASVKVSCKASGYIFTSYGMSWVRQAPGKGLKWMGWINTYSGVPTYADDFKGRFVFSLDTSVRTPYLQISSLKAEDTAVYFCARGGEAMDYWGQGTLVTVSS
VL: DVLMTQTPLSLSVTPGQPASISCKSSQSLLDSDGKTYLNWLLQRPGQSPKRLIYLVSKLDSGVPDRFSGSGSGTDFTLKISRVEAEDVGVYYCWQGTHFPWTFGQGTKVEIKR
notes: Humanized monovalent Fab; also called h10D12_45-21 parental Fab
B6: h10D12-45-21-DE Fab (VH-45 and VL-21-DE) (Fab, V domains shown)
VH: B5 VH
VL: DVLMTQTPLSLSVTPGQPASISCKSSQSLLDSEGKTYLNWLLQRPGQSPKRLIYLVSKLDSGVPDRFSGSGSGTDFTLKISRVEAEDVGVYYCWQGTHFPWTFGQGTKVEIKR
notes: also called 10D12-DE mutant
B7: h10D12-45-21-GA Fab (VH-45 and VL-21-GA) (Fab, V domains shown)
VH: B5 VH
VL: B6 VL with E33D, G34A
notes: Humanized monovalent Fab; also called 10D12-GA mutant
B8: h10D12_49-21 Fab (VH-49 and VL-21) (Fab, V domains shown)
VH: B5 VH with V93T
VL: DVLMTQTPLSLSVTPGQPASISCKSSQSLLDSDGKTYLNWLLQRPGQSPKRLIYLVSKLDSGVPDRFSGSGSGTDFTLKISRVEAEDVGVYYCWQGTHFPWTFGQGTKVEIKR
notes: Humanized monovalent Fab
B9: h13B1_10-1 Fab (VH-10 and VL-1) (Fab, V domains shown)
VH: QVQLVQSGAEVKKPGASVKVSCKASGYTFTGKWIEWVRQAPGQGLEWIGEILPGTGSTNYNEKFKGRATFTADSSTSTAYMELSSLRSEDTAVYYCLRSEDVWGQGTLVTVSS
VL: B3 VL with L100I, Y101P
notes: Humanized monovalent Fab; also called h13B1_10-1 parental Fab
B10: h13B1_9-1 Fab (VH-9 and VL-1) (Fab, V domains shown)
VH: B9 VH with N61A, E62Q, K65Q
VL: B3 VL with L100I, Y101P
notes: Humanized monovalent Fab
B11: h13B1_10-1-NA Fab (VH-10 and VL-1-NA) (Fab, V domains shown)
VH: B9 VH
VL: B3 VL with N31A, L100I, Y101P
notes: Humanized monovalent Fab; also called 13B1-NA
B12: h13B1_10-1-NQ Fab (VH-10 and VL-1-NQ) (Fab, V domains shown)
VH: B9 VH
VL: B3 VL with N31Q, L100I, Y101P
notes: also called 13B1-NQ
B13: h13B1_10-1-ST Fab (VH-10 and VL-1-ST) (Fab, V domains shown)
VH: B9 VH
VL: B3 VL with S32T, L100I, Y101P
notes: also called 13B1-ST

What was measured:
[1] = target: T1, human MASP-3 CCP1-CCP2-SP fragment; assay: sandwich ELISA, MASP-3 CCP1-CCP2-SP captured by αM3-259
Experimental: (§1) The plate was then washed (PBS-T, 0.05%) and the candidate MASP-3 antibodies were added followed by incubation for one hour at room temperature. The plate was washed (PBS-T, 0.05%) and a detection antibody was added (mouse anti-human kappa-HRP, SouthernBiotech #9230-05) for one hour at room temperature. After another wash (PBS-T, 0.05%) the plate was developed (5 minutes) with OPT EIA TMB (BD Biosciences #555214). Absorbance reading at A450 was measured using the Spectramax M5e plate reader.

[2] = target: T2, recombinant full-length mouse MASP-3; assay: sandwich ELISA, full-length mouse MASP-3 captured by αM3-259
Experimental: as §1

[3] = target: T5, recombinant human MASP-2 (CCP1-CCP2-SP fragment) (human, UniProt O00187 298-686, limits assumed); assay: ELISA: recombinant MASP-2 (CCP1-CCP2-SP) coated directly on the plate, A450
T5 construct: domain: CCP1-CCP2-SP fragment
T5 sequence (O00187 298-686 limits assumed): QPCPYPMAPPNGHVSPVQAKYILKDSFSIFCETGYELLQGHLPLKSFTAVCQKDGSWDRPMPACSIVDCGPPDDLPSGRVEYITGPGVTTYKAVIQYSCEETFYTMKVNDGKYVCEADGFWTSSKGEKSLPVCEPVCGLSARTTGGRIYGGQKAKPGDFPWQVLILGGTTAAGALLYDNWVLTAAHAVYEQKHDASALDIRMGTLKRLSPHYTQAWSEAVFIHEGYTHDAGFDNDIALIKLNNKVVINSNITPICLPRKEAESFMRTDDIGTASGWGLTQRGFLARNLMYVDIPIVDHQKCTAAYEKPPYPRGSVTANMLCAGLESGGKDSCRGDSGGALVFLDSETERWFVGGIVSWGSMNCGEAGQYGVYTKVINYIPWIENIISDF
Experimental: as §1

[4] = target: T3, human MASP-3 (construct not stated); assay: cell-based or functional assay
[5] = target: T3, human MASP-3 (construct not stated); assay: not described at this place
[6] = target: T4, recombinant human MASP-1A (S646A, …); assay: ELISA: recombinant MASP-1A (S646A, CCP1-CCP2-SP) coated directly on the plate, A450
Experimental: as §1

[7] = target: T3, human MASP-3 (construct not stated); assay: ELISA, monovalent Fab
[8] = target: T3, human MASP-3 (construct not stated); assay: ELISA, monovalent Fab

Binder | EC50 [7] [nM] | EC50 [8] [nM] | also measured
B1 |  |  | EC50 [1]: 0.057 nM; EC50 [2]: 0.105 nM; binding result [3]: no binding (tested: about 20 nM (log10 about 1.3)); Inhibition of Rabbit Erythrocyte Lysis (IC50 nM), 10% factor D-depleted human serum [4]: 0.8 nM; binding affinity [5]: ≤ 500 pM; binding result [6]: no binding (tested: about 20 nM (log10 about 1.3))
B2 |  |  | EC50 [1]: 0.073 nM; EC50 [2]: 0.102 nM; binding result [3]: no binding (tested: about 20 nM (log10 about 1.3)); Inhibition of Rabbit Erythrocyte Lysis (IC50 nM), 10% factor D-depleted human serum [4]: 0.9 nM; binding affinity [5]: ≤ 500 pM; binding result [6]: no binding (tested: about 20 nM (log10 about 1.3))
B3 | 0.102 | 0.079 | 
B4 |  | 0.085 | 
B5 | 0.108 | 0.108 | 
B6 | 0.326 |  | 
B7 | 0.181 |  | 
B8 |  | 0.115 | 
B9 | 0.1 | 0.097 | 
B10 |  | 0.101 | 
B11 | 0.105 |  | 
B12 | 0.138 |  | 
B13 | 0.12 |  | 
